Earlier results on one substance are cited in PMC9303997.

The target of data set [1] is spastin MIT (Homo sapiens) (UniProt Q9UBP0).
Another data set deals with VPS4B MIT (Homo sapiens) (UniProt O75351).
Sequence of VPS4B MIT (Homo sapiens) (O75351 1-85): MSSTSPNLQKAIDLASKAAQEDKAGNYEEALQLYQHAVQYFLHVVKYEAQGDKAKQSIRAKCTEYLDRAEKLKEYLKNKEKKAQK

Sequence of spastin MIT (Homo sapiens) (Q9UBP0 117-198): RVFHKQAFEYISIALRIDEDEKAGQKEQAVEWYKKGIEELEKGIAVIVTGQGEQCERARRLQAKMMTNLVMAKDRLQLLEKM

Regarding IST1 MIM (from UniProt P53990), the Kd in data set [1] was 0.5 nM; with VPS4B MIT (Homo sapiens), 12 nM.
